Assay in all cases: PDK1 activity assay with T308tide
What all share (format): biochemical

The target in one test is T1, GST-PDK1 [Thr148Val] (Homo sapiens, UniProt O15530, T148V).
T1 construct: different protein constructs, comprising the full length protein or the catalytic domain alone; made in house; host or cells: HEK293 cells (pEBG-2T-PDK1 mutant)
T1 sequence (O15530 1-556 T148V): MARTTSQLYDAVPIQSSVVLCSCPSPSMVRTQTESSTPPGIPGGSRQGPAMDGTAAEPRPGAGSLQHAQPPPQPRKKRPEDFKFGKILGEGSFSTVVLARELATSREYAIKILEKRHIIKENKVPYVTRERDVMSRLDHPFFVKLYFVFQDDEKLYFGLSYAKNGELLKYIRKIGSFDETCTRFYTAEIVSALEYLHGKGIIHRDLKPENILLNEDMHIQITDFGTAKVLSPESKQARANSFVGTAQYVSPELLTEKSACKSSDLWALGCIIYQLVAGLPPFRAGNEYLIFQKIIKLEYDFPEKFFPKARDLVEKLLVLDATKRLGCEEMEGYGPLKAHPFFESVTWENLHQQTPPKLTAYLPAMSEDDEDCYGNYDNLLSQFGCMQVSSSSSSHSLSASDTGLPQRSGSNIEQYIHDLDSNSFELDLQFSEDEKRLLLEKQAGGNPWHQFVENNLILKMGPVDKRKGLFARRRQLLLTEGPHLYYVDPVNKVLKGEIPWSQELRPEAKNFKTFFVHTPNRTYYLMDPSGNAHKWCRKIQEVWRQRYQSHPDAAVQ
The following applies: PDK1[Thr148Val]; 20 μM. Here is the method: (§1) Protein kinase activity tests were performed essentially as previously described (Balendran et al., 2000; Biondi et al., 2000; Biondi et al., 2001). Substrates used were either MBP (for PKCζ or polypeptides (Crosstide for PKB, S6K, SGK and PRK2; T308tide for PDK1, and Kemptide for PKA). PKA (Sigma) was measured in the presence of 100 μM cAMP. Alternatively, assays were performed in a 96 well format, aliquots spotted on p81 phosphocellulose papers (Whatmann), washed in 0.01% phosphoric acid, dried, and then exposed and analysed using Phospholmager technology (Storm, Molecular Dynamics). Activity measurements were performed in duplicates with less than 10% difference between duplicate pairs. Experiments were repeated at least twice, although most of the experiments were repeated multiple times, with similar results.
(§2) PDK1 activity assay was performed in a 20 μl mix containing 50 mM Tris-HCl pH 7.5, 0.05 mg/ml BSA, 0.1% β-mercaptoethanol, 10 mM MgCl2, 100 μM [γ^32P]ATP (5-50 cpm/pmol), 0.003% Brij, 150 ng PDK1, and T308tide (from 0.05 to 1 mM). PDK1 specific activity was approximately 5 U/mg (when measured at 1 mM T308tide). The effect of small compounds on PDK1 was repeated with proteins from different purification batches and with different protein constructs, comprising the full length protein or the catalytic domain alone, with similar results. […] This variability may be due to the PIFtide/compound-stimulated autophosphorylation of the activation loop in certain preparations having less than a 1:1 molar phosphorylation stoichiometry at this site.
(§3) PDK1 activity was measured at room temperature using a polypeptide substrate derived from the activation loop phosphorylation site of PKB, T308tide (0.1 mM). […] GST-PDK1 wt was purified in numerous occasions and the maximal activation level of different batches varied between 3 and 8 fold activation with PIFtide or compound 1. Variations in the basal activity and fold activation were also observed in mutants. Therefore, comparisons in the maximal level of activation between mutants should be performed with care. The data shown are from an experiment where PIFtide concentrations were tested between 50 nM and 20 µM and compound 1 concentrations were between 5 μM and 200 μM, in triplicate. AC50 and max. activity were estimated by fitting the data to a hyperbola using Kaleidagraph software. One Unit of PDK1 activity was defined as the amount required to catalyse the phosphorylation of 1 nmol of the T308tide in 1 min.

The next test deals with T2, GST-PDK1 [Ile119Ala] (Homo sapiens, UniProt O15530, I119A).
T2 construct: different protein constructs, comprising the full length protein or the catalytic domain alone; made in house; host or cells: HEK293 cells (pEBG-2T-PDK1 mutant)
T2 sequence (O15530 1-556 I119A): T1 sequence (O15530 1-556 T148V) with I119A, V148T
The settings on record: Ile119 mutant; P-HM-RSK 20 μM. Here is the method:
as §1, §2, §3

A further test deals with T3, GST-PDK1 [Gln150Ala] (Homo sapiens, UniProt O15530, Q150A).
T3 construct: different protein constructs, comprising the full length protein or the catalytic domain alone; made in house; host or cells: HEK293 cells (pEBG-2T-PDK1 mutant)
T3 sequence (O15530 1-556 Q150A): T1 sequence (O15530 1-556 T148V) with V148T, Q150A
The following applies: PDK1[Gln150Ala]; 20 μM. Here is the method: as §1, §2, §3

The target of the next test is T4, GST-PDK1 wt (Homo sapiens, UniProt O15530).
T4 construct: different protein constructs, comprising the full length protein or the catalytic domain alone; made in house; host or cells: HEK293 cells (pEBG-2T-PDK1)
T4 sequence (O15530 1-556): T1 sequence (O15530 1-556 T148V) with V148T
As for the experimental part: as §1, §2, §3

This note sets out measurements from patent publication US20110152166A1, “METHOD OF MODULATION OF PROTEIN PHOSPHORYLATION-DEPENDENT CONFORMATIONAL TRANSITIONS WITH LOW MOLECULAR WEIGHT COMPOUNDS” (priority 2006, published 2011).

Substitutions are numbered along the chain they refer to. Square brackets hold non-standard residues; d marks the D form. Ends that are not written are not given here. pS = N[C@@H](COP(=O)(O)O)C(=O)O

As to “P-HM-PKB: phosphorylated HM polypeptide of PKB: KGAGGGGFPQFS(P)YSA (KGAGGGGFPQF[pS]YSA) [reference compound]”, the “activation of PDK1 mutant (in words)” value with GST-PDK1 [Thr148Val], with GST-PDK1 [Ile119Ala] and with GST-PDK1 [Gln150Ala] was “completely abolished” each time. For the same substance, the “activation of PDK1 (in words)” value with GST-PDK1 wt (PDK1 wild type) was “activated”.

On to “GFRDFDY [polypeptide comprising the complete hydrophobic motif present in PIFtide, reference compound]”, for which the “activation of PDK1 (in words)” value with GST-PDK1 wt (concentrations up to 500 µM, data not shown) was “did not activate PDK1”.
